Measured values from patent publication US20190016800A1 (NANJING LEADS BIOLABS, published 2019).

Legend:
[1] = target: T1, Human LAG-3 protein (Cat#LA3-5222, Acrobiosystems) (human, UniProt P18627 23-450); assay: SPR Biacore T200, antibody captured on anti-human IgG (Fc), human LAG-3 injected 6.25-200 nM, 1:1 Langmuir fit
T1 construct: Bought protein; also called recombinant human LAG-3; LAG3 recombinant protein
T1 sequence: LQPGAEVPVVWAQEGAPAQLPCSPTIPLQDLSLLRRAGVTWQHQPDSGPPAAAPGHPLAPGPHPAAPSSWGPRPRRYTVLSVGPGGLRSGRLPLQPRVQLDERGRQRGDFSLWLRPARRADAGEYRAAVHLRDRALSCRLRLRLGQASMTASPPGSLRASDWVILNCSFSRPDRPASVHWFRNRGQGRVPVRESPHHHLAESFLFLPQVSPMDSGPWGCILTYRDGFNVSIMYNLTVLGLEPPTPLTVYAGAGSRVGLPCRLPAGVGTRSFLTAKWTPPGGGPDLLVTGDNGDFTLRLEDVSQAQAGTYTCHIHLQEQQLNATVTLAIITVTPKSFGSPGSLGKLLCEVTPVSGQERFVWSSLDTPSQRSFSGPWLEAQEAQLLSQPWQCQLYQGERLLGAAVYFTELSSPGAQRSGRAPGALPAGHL

[2] = target: T2, human CD4 recombinant protein (Sino Biological) (human, UniProt P01730 26-390, limits assumed); assay: ELISA, human CD4 recombinant protein immobilized
T2 construct: Bought protein

[3] = target: T3, Mouse LAG-3 (Acrobiosystems) (mouse, UniProt Q61790 24-442, limits assumed); assay: ELISA, mouse LAG-3 recombinant protein immobilized
T3 construct: Bought protein; also called mouse LAG-3 recombinant protein
T3 sequence (looked up): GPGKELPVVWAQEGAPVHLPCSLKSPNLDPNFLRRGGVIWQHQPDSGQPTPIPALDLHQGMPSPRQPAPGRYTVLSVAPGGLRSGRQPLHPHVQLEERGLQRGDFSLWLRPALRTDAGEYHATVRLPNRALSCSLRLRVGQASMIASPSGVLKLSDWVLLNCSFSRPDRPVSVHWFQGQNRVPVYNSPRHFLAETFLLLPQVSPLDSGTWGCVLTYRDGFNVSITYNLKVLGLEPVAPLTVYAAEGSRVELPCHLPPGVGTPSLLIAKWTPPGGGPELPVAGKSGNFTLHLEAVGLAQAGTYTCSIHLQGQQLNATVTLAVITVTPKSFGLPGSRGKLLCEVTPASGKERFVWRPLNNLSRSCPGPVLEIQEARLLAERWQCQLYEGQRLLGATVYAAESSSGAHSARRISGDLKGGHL

[4] = target: T1, Human LAG-3 protein (Cat#LA3-5222, …); assay: phage ELISA on coated LAG3
[5] = target: T4, LAG-3 fusion protein comprising human LAG-3 extracellular domain fused to mouse Fc (SinoBiological, … (human; mouse, UniProt P18627 23-450); assay: flow cytometry blocking assay: antibody premixed with hLAG-3-mFc, binding of hLAG-3-mFc to MHC class II on Daudi cells read as MFI
T4 construct: Bought fusion protein; not shown: mouse Fc
T4 sequence: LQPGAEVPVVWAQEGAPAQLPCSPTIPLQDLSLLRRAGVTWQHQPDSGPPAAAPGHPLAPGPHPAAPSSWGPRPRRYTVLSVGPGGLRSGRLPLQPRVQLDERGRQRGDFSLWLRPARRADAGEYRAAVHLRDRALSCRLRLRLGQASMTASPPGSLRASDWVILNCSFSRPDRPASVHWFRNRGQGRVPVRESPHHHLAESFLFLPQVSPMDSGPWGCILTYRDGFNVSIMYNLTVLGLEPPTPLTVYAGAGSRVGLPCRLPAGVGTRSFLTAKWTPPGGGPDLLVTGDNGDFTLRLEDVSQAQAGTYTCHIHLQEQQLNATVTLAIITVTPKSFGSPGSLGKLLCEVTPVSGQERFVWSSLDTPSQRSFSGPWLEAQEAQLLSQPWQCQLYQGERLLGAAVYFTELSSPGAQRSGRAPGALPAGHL

[6] = target: T1, Human LAG-3 protein (Cat#LA3-5222, …); assay: ELISA blocking assay: human LAG-3 immobilized, antibody mixed with biotin labeled LSECtin, streptavidin-HRP, OD450-620
[7] = target: T1, Human LAG-3 protein (Cat#LA3-5222, …); assay: ELISA, human LAG-3 recombinant protein immobilized, serially diluted antibody, anti-human IgG-HRP, OD450-620
[8] = target: T1, Human LAG-3 protein (Cat#LA3-5222, …); assay: BLI ForteBio Octet RED 96, biotin labeled antibody on streptavidin sensor, antigen 3.125-100 nM, 1:1 fit
[9] = target: T5, recombinant rhesus monkey LAG-3 protein (Amino acids 1-450 of XM_001108923.3 fused to human IgG1 Fc domain) (rhesus monkey; human, UniProt P18627 23-450); assay: as above
T5 construct: not shown: human IgG1 Fc domain
T5 chain: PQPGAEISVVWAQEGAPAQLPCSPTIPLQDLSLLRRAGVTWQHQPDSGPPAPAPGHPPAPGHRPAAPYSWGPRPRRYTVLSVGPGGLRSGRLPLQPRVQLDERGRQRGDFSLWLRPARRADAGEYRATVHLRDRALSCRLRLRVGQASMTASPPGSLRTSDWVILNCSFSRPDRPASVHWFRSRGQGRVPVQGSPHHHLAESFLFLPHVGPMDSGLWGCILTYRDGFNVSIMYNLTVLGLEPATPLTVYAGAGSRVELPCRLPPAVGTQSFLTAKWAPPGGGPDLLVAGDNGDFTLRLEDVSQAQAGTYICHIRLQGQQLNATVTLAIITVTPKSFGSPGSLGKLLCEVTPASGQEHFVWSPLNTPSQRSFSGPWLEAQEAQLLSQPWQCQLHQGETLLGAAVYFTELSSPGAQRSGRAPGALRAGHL

[10] = target: cynomolgus monkey LAG-3 protein (Cat#LA3-C52A0, Acrobiosystems) (cynomolgus monkey); assay: as above
[11] = target: T6, Recombinant LAG-3 domain 1-2 (Amino acid 1-262) fused to human IgG1 Fc domain (human, UniProt P18627 23-262); assay: ELISA, human LAG-3 domain 1-2 Fc fusion immobilized, serially diluted antibody, anti-human F(ab')2-HRP, OD450-620
T6 construct: also called domain 1-2 of human LAG-3; not shown: human IgG1 Fc domain
T6 sequence: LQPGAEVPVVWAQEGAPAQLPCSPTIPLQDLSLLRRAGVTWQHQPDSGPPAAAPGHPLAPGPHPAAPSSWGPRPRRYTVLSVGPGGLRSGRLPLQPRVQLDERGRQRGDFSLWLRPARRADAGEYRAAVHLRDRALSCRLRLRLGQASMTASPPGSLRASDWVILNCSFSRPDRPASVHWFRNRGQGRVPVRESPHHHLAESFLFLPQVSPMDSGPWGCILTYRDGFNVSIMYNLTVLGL

B1: anti-LAG-3 antibody 6# (antibody, human IgG4 S228P, lambda, V domains shown)
VH: QVQLVQSGGGVVQPGRSLRLPCAASGFTFSSYGMHWVRQAPGKGLEWVAAISYDGSNKYYADSVKGRFTISRDNSKNTLYLQMNSLRAEDTAVYYCAREGSYYLEGIDYWGQGTLVTVSS
VL: QSVLTQPPSVSEAPRQRVTISCSGSSSNIGDNAVNWYQQLPGKAPTLLIYYDDLLPSGVPDRFSGSKSGTSASLAISGLQSEDEAEYYCAAWDDSLKGYVFGTGTKLTVLG
notes: also called Clone 6#; Clone 6
- Kd [1]: 38.4 nM
- koff [1]: 0.000943 s⁻¹
- kon [1]: 24600 M⁻¹ s⁻¹
- binding result [2]: no binding (tested: about 20 nM)
- binding result [3]: no binding (tested: about 10 nM)

B2: clone 6# as single chain Fv displayed on phage (scFv)
scFv: QVQLVQSGGGVVQPGRSLRLPCAASGFTFSSYGMHWVRQAPGKGLEWVAAISYDGSNKYYADSVKGRFTISRDNSKNTLYLQMNSLRAEDTAVYYCAREGSYYLEGIDYWGQGTLVTVSSSGGSTITSYNVYYTKLSSSGTQSVLTQPPSVSEAPRQRVTISCSGSSSNIGDNAVNWYQQLPGKAPTLLIYYDDLLPSGVPDRFSGSKSGTSASLAISGLQSEDEAEYYCAAWDDSLKGYVFGTGTKLTVLG
- binding result [4]: binds

B3: anti-LAG-3 antibody 2# (antibody, V domains shown)
VH: QVQLQESGGGVVRPGGSLRLSCAASGFTFDDYGMSWVRQAPGKGLEWVSGINWSGGSTYYADSVKGRSTISRDNSKNTLYLQMNSLRAEDTAVYYCATGGYWGQGTLVTVSS
VL: not shown
notes: elsewhere IgG4 is preferred; also called Clone 2#; clone #2
- IC50 [5]: 11.5 nM
- Kd [1]: 0.348 nM
- koff [1]: 0.00062 s⁻¹
- kon [1]: 1.78e+06 M⁻¹ s⁻¹
- IC50 [6]: 6.48 nM
- EC50 [7]: 0.105 nM
- Kd [8]: 0.13 nM
- koff [8]: 3.65e-05 s⁻¹
- kon [8]: 280000 M⁻¹ s⁻¹
- Kd [9]: 1.22 nM
- koff [9]: 0.000676 s⁻¹
- kon [9]: 554000 M⁻¹ s⁻¹
- Kd [10]: 1.27 nM
- koff [10]: 0.00058 s⁻¹
- kon [10]: 457000 M⁻¹ s⁻¹
- binding result [2]: no binding (tested: about 20 nM)
- EC50 [11]: 0.228 nM
- binding result [3]: no binding (tested: about 10 nM)

B4: anti-LAG-3 antibody 8# (antibody, human IgG4 S228P, lambda, V domains shown)
VH: QVQLQESGGGVVRPGGSLRLSCAASGFTFDDYGMSWVRQAPGKGLEWVSGINWSGGSTYYADSVKGRSTISRDNSKNTLYLQMNSLRAEDTAVYYCATGGYWGQGTLVTVSS
VL: SYELTQPPSVSVSPGQTASITCSGDKLGDKYTSWYQQKPGQSPLLVIYQSTKRPSGIPERFSGSNSGDTATLTISGTQPMDEADYYCQAWDSSTAVFGGGTKLTVLG
notes: also called Clone 8#; Clone 8
- IC50 [5]: 31.5 nM
- Kd [1]: 2.08 nM
- koff [1]: 0.000298 s⁻¹
- kon [1]: 143000 M⁻¹ s⁻¹
- EC50 [7]: 0.637 nM
- binding result [2]: no binding (tested: about 20 nM)
- EC50 [11]: 1.99 nM
- binding result [3]: no binding (tested: about 10 nM)

B5: anti-LAG-3 antibody 13# (antibody, human IgG4 S228P, lambda, V domains shown)
VH: QVQLQESGGGVVRPGGSLRLSCAASGFTFDDYGMSWVRQAPGKGLEWVSGINWSGGSTYYADSVKGRSTISRDNSKNTLYLQMNSLRAEDTAVYYCATGGYWGQGTLVTVSS
VL: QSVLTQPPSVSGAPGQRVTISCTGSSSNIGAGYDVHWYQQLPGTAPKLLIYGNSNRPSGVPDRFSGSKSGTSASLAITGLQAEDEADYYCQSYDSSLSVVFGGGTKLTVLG
notes: The VH is the same as that of clone 8; also called Clone 13#; Clone 13
- Kd [1]: 486 nM
- koff [1]: 0.0448 s⁻¹
- kon [1]: 92200 M⁻¹ s⁻¹
- EC50 [7]: 0.509 nM
- binding result [2]: no binding (tested: about 20 nM)
- EC50 [11]: 1.46 nM
- binding result [3]: no binding (tested: about 10 nM)

B6: clone 8# as single chain Fv displayed on phage (scFv)
scFv: QVQLQESGGGVVRPGGSLRLSCAASGFTFDDYGMSWVRQAPGKGLEWVSGINWSGGSTYYADSVKGRSTISRDNSKNTLYLQMNSLRAEDTAVYYCATGGYWGQGTLVTVSSSGGSTITSYNVYYTKLSSSGTSYELTQPPSVSVSPGQTASITCSGDKLGDKYTSWYQQKPGQSPLLVIYQSTKRPSGIPERFSGSNSGDTATLTISGTQPMDEADYYCQAWDSSTAVFGGGTKLTVLG
- binding result [4]: binds
